Results: the PETadex activity labels (doi:10.1016/s0021-9258(17)37371-4)
Changes are numbered by the printed parent chain.

B1: unnamed (protein)
chain: MRPPQCLLHTPSLASPLLLLLLWLLGGGVGAEGREDAELLVTVRGGRLRGIRLKTPGGPVSAFLGIPFAEPPMGPRRFLPPEPKQPWSGVVDATTFQSVCYQAVDTLYPGFEGTEMWNPNRELSEDCLYLNVWTPYPRPTSPTPVLVWIYGGGFYSGASSLDVYDGRFLVQAERTVLVSMNYRVGAFGFLALPGSREAPGNVGLLDQRLALQWVQENVAAFGGDPTSVTLFGESAGAASVGMHLLSPPSRGLFHRAVLQSGAPNGPWATVGMGEARRRATQLAHLVGCPPGGTGGNDTELVACLRTRPAQVLVNHAAHVLPQESVFRFSFVPVVDGDFLSDTPEALINAGDFHGLQVLVGVVKDEGSYFLVYGAPGFSKDNESLISRAEFLAGVRVGVPQVSDLAAEAVVLHYTDWLHPEDPARLREALSDVVGDHNVVCPVAQLAGRLAAQGARVYAYVFEHRASTLSWPLWMGVPHGYEIEFIFGIPLDPSRNYTAEEKIFAQRLMRYWANFARTGDPNEPRDPKAPQWPPYTAGAQQYVSLDLRPLEVRRGLRAQACAFWNRFLPKLLSATDTLDEAERQWKAEFHRWSSYMVHWKNQFDHYSKQDRCSDL
B2: unnamed (protein)
chain: B1 chain with A316E
B3: unnamed (protein)
chain: B1 chain with A103Y, A316E, A317W, Y368A
B4: unnamed (protein)
chain: B1 chain with A316E, A317W
B5: unnamed (protein)
chain: B1 chain with A103Y, D105N, A316E, A317W
B6: unnamed (protein)
chain: B1 chain with A103Y, A317W
B7: unnamed (protein)
chain: B1 chain with A103Y, A316E, A317W, Y372A
B8: unnamed (protein)
chain: B1 chain with A317W
B9: unnamed (protein)
chain: B1 chain with A103Y, A316E, A317W, F328A

substrate: Acetylcholine; settings: pH 8; 27 °C

B1 and B2 are the same in Km: 300 µM for the first, 300 µM for the second.

B3 and B4 are within 1.5-fold of each other in Km: 100 µM for the first, 130 µM for the second.

First: B5
Second: B6
The Km of the first is 2.1-fold higher: 600 µM for the first, 280 µM for the second.

B7 and B8 are within 1.5-fold of each other in Km: 300 µM for the first, 240 µM for the second.

B9 was tested, and the Km was 310 µM.

Compared with B1, B2 is 2.1-fold higher in kcat: 3330 s⁻¹ for the first, 7000 s⁻¹ for the second.

Compared with B3, B4 is 3.8-fold higher in kcat: 1670 s⁻¹ for the first, 6330 s⁻¹ for the second.

Going from B5 to B6, the kcat rises from 4170 s⁻¹ to 6330 s⁻¹ (1.5-fold).

Compared with B7, B8 is 1.6-fold higher in kcat: 4170 s⁻¹ for the first, 6670 s⁻¹ for the second.

In the case of B9, the kcat is reported as 2000 s⁻¹.

First: B1
Second: B2
The kcat/Km of the first is 2.1-fold lower: 1.11e+07 M⁻¹ s⁻¹ for the first, 2.33e+07 M⁻¹ s⁻¹ for the second.

First: B3
Second: B4
The kcat/Km of the first is 2.9-fold lower: 1.67e+07 M⁻¹ s⁻¹ for the first, 4.87e+07 M⁻¹ s⁻¹ for the second.

Going from B5 to B6, the kcat/Km rises from 6.94e+06 M⁻¹ s⁻¹ to 2.26e+07 M⁻¹ s⁻¹ (3.3-fold).

First: B7
Second: B8
The kcat/Km of the first is 2-fold lower: 1.39e+07 M⁻¹ s⁻¹ for the first, 2.78e+07 M⁻¹ s⁻¹ for the second.

In the case of B9, the kcat/Km is reported as 6.45e+06 M⁻¹ s⁻¹.
